Laboratory results as given in patent US20080255046A1 (7TM PHARMA A S, published 2008).
Where no end group is shown, it is not given here. [ ]: non-standard residue; d: D form. Met(O) = CS(=O)CC[C@H](N)C(=O)O

T1: rhesus monkey Y2 receptor (rhesus monkey, UniProt Q9GK74 1-381)
T1 sequence (looked up): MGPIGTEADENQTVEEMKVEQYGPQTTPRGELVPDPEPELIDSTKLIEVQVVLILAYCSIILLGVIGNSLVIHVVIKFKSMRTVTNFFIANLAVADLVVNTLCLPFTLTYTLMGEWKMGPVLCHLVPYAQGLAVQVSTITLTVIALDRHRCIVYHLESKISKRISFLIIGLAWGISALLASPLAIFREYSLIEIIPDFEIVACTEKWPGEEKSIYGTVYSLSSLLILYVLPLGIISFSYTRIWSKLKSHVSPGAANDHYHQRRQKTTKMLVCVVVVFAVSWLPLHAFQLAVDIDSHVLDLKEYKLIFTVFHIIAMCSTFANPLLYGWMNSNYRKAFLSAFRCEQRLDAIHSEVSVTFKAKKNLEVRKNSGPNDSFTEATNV

B1: [Lys4,Leu17,Met-sulfoxide30,Gln34]hPP (peptide)
peptide: APLKPVYPGDNATPEQLAQYAADLRRYIN[Met(O)]LTRQRY-NH2
modifications: N-terminus assumed
SMILES: CC[C@H](C)[C@H](NC(=O)[C@H](Cc1ccc(O)cc1)NC(=O)[C@H](CCCNC(=N)N)NC(=O)[C@H](CCCNC(=N)N)NC(=O)[C@H](CC(C)C)NC(=O)[C@H](CC(=O)O)NC(=O)[C@H](C)NC(=O)[C@H](C)NC(=O)[C@H](Cc1ccc(O)cc1)NC(=O)[C@H](CCC(N)=O)NC(=O)[C@H](C)NC(=O)[C@H](CC(C)C)NC(=O)[C@H](CCC(N)=O)NC(=O)[C@H](CCC(=O)O)NC(=O)[C@@H]1CCCN1C(=O)[C@@H](NC(=O)[C@H](C)NC(=O)[C@H](CC(N)=O)NC(=O)[C@H](CC(=O)O)NC(=O)CNC(=O)[C@@H]1CCCN1C(=O)[C@H](Cc1ccc(O)cc1)NC(=O)[C@@H](NC(=O)[C@@H]1CCCN1C(=O)[C@H](CCCCN)NC(=O)[C@H](CC(C)C)NC(=O)[C@@H]1CCCN1C(=O)[C@H](C)N)C(C)C)[C@@H](C)O)C(=O)N[C@@H](CC(N)=O)C(=O)N[C@@H](CCS(C)=O)C(=O)N[C@@H](CC(C)C)C(=O)N[C@H](C(=O)N[C@@H](CCCNC(=N)N)C(=O)N[C@@H](CCC(N)=O)C(=O)N[C@@H](CCCNC(=N)N)C(=O)N[C@@H](Cc1ccc(O)cc1)C(N)=O)[C@@H](C)O
notes: Human PP with Lys at 4, Leu at 17, oxidised Met at 30 and Gln at 34; also called [Lys4, Leu17, Met(O)30, Gln34]-PP; [Lys4,Leu17,oxidised Met30,Gln34]hPP
B2: [Lys4,Leu17,Thr30,Gln34]hPP (peptide)
peptide: APLKPVYPGDNATPEQLAQYAADLRRYINTLTRQRY-NH2
notes: Human PP with Lys at 4, Leu at 17, Thr at 30 and Gln at 34; also called [Lys4, Leu17, Thr30, Gln34]-PP; peptide (ii)
B3: [Lys4,Leu17,Ser30,Gln34]hPP (peptide)
peptide: APLKPVYPGDNATPEQLAQYAADLRRYINSLTRQRY-NH2
notes: also called [Lys4, Leu17, Ser30, Gln34]-PP; peptide (i)
B4: NPY (Neuropeptide Y), human sequence (peptide)
peptide: not shown
modifications: C-terminally amidated
B5: PYY (Peptide YY), human sequence (peptide)
peptide: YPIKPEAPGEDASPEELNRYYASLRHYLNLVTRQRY
modifications: C-terminally amidated
notes: also called PYY1-36; human PYY
B6: PP (Pancreatic Polypeptide), human sequence (peptide)
peptide: APLEPVYPGDNATPEQMAQYAADLRRYINMLTRPRY-NH2

Each binder was assayed against T2, rhesus monkey Y4 receptor (rhesus monkey) (assay: competition binding on CHO cells expressing rhesus monkey Y4 (125I-PP), compared with Y2).
T2 construct: whole, on cells; also called rhY4
Procedure: (§1) The stable transfected CHO cells are transferred to 48-well culture plates one day prior assay at a density of 2,500 cells per well aiming at 5-8% binding of the radioactive ligand. […] Binding assays are performed in 0.5 ml of a 50 mM Hepes buffer, pH 7.4, supplemented with 1 mM CaCl2, 5 mM MgCl2, and 0.1% (w/v) bovine serum albumin and 100 μg/ml bacitracin. Non-specific binding is determined as the binding in the presence of 1 μM of unlabeled human PYY. Cells are washed twice in 0.5 ml of ice-cold buffer and 0.5-1 ml of lysis buffer (8 M Urea, 2% NP40 in 3 M acetic acid) is added and the bound radioactivity is counted in a gamma counter. Determinations are made in triplicates. […] IC50 values were calculated using a standard pharmacological data handling software, Prism 3.0 (graphpad Sofware, San Diego, USA). Ki-values are calculated according the Cheng-Prusoff equation (Cheng Y, Prusoff W H., Biochem Pharmacol. 1973): Ki=[IC50/(1+[L]/Kd)], where Ki is the equilibrium inhibitory constant for the cold ligand, Kd is the equilibrium constant for the radiolabeled (hot) ligand and L is the concentration of the radiolabeled ligand used.

Question: How did the “fold selectivity (affinity at Y2 against Y4)” value turn out when B1 was run?
Answer: The value was ≥ 20 fold.

Question: B2 was tested. Which “fold selectivity (affinity at Y2 against Y4)” value did it give?
Answer: The value was ≥ 20 fold.

Question: How did the “fold selectivity (affinity at Y2 against Y4)” value turn out when B3 was run?
Answer: Its value is ≥ 20 fold.

The binders below were run against T1, rhesus monkey Y2 receptor (assay: cell-based or functional assay).

Question: For B4, which “IP3 EC50 values at Y2” value is on record?
Answer: The value was 0.6 nM.

Question: B5 was tested. Which “IP3 EC50 values at Y2” value did it give?
Answer: The value was 0.18 nM.

Question: How did the “IP3 EC50 values at Y2” value turn out when B1 was run?
Answer: Its value is 0.5 nM.

Question: How did the “IP3 EC50 values at Y2” value turn out when B2 was run?
Answer: The value was 0.71 nM.

Question: How did the “IP3 EC50 values at Y2 (nM)” value turn out when B6 was run?
Answer: Its value is > 1000 nM.

Question: With B3 as the binder, how does the “IP3 EC50 values at Y2” value read?
Answer: Its value is 0.67 nM.

What follows are binders tested against T2, rhesus monkey Y4 receptor (assay: cell-based or functional assay).

Question: B1 was tested. Which “fold selectivity in the potency assay (Y2 against Y4)” value (from here on “fold selectivity … (Y2 against Y4)”) did it give?
Answer: Its value is ≥ 20 fold.

Question: For B2, which “fold selectivity … (Y2 against Y4)” value is on record?
Answer: Its value is ≥ 20 fold.

Question: With B3 as the binder, how does the “fold selectivity … (Y2 against Y4)” value read?
Answer: The value was ≥ 20 fold.

The binders below were run against rhesus monkey Y1 receptor (rhesus monkey) (assay: cell-based or functional assay).

Question: With B1 as the binder, how does the “fold selectivity in the potency assay (Y2 against Y1)” value (“fold selectivity … (Y2 against Y1)” for short) read?
Answer: The value was ≥ 100 fold.

Question: For B2, which “fold selectivity … (Y2 against Y1)” value is on record?
Answer: Its value is ≥ 100 fold.

Question: For B3, which “fold selectivity … (Y2 against Y1)” value is on record?
Answer: Its value is ≥ 100 fold.

The binders below were run against T3, rhesus monkey Y1 receptor (rhesus monkey) (assay: competition binding on CHO cells expressing rhesus monkey Y1 (125I-PYY), compared with Y2).
T3 construct: whole, on cells; also called rhY1
Procedure: as §1
Protocol as for the Y2 affinity assay, except that CHO cells stably expressing rhesus monkey Y1 are used and cells are transferred to culture plates at a density of 23,000 cells per well.

Question: How did the “fold selectivity (affinity at Y2 against Y1)” value turn out when B1 was run?
Answer: The value was ≥ 100 fold.

Question: Which “fold selectivity (affinity at Y2 against Y1)” value does the source give for B2 here?
Answer: Its value is ≥ 100 fold.

Question: Which “fold selectivity (affinity at Y2 against Y1)” value does the source give for B3 here?
Answer: Its value is ≥ 100 fold.

These binders were tested against T1, rhesus monkey Y2 receptor (assay: competition binding with 125I-PYY on CHO cells stably expressing rhesus monkey Y2).
Procedure: as §1

Question: B4 was tested. Which Ki did it give?
Answer: The Ki was 0.11 nM.

Question: B5 was tested. Which Ki did it give?
Answer: The Ki was 0.09 nM.

Question: Which Ki does the source give for B1 here?
Answer: The Ki was 0.06 nM.

Question: With B2 as the binder, how does the Ki read?
Answer: The Ki was 0.47 nM.

Question: How did the Ki turn out when B3 was run?
Answer: The Ki was 0.51 nM.
